Consider one substance from patent publication US7223730.

Values joined by “and” are separate entries in the source; they are usually repeats but may differ in a detail not shown here. Identical values can stand only once.

In one data set the target is human fibrinogen (UniProt P02671).

With “antithrombosis enzyme purified from the snake venom of Southern-Anhui Agkistrodon acutus”, in the data set with azocasein, the “proteolytic activity (azocasein hydrolysis, absorbance at 390 nm)” value is on record as “No proteolytic activity was detected in this assay”. In the data set with human fibrinogen, the fibrinogen cleavage result is given as “One fibrinogen cleavage site was found to be Met 235-Pro236 of the α chain of human fibrinogen”. Further, the fibrinolytic activity with fibrin is 1 fibrinolytic activity unit per mg protein. For the same substance, the fibrinolytic activity (fibrin-plate-clearance assay) in the data set with fibrin (scale: fibrinolytic activity units per mg of enzyme) is 1 and 3.
